Experimental data reported in the Human Domainome abundance scans (Beltran et al. 2025).
± gives the uncertainty stated by the source.

B1: RNA-binding E3 ubiquitin-protein ligase MEX3C, residues 325 to 391; numbered along this chain, Q5U5Q3 (parent)
chain: GQTTVQVRVPYRVVGLVVGPKGATIKRIQQQTHTYIVTPSRDKEPVFEVTGMPENVDRAREEIEMHI

Variants of: B1
Test: abundance fitness (aPCA) (normalised: wild type 0, dead -1); higher = more abundant; growth selection in yeast, the domain comes from the species named
Details: Homo sapiens

Point of comparison: GQTTVQVRVPYRVVGLVVGPKGATIKRIQQQTHTYIVTPSRDKEPVFEVCGMPENVDRAREEIEMHI [T50C], abundance fitness -0.313 ± 0.12. Against it:
- GQTTVQVRVPYRVVGLVVGPKGATIKRIQQQTHTYIVTPSRDKEPVMEVTGMPENVDRAREEIEMHI [F47M] — lower, -0.808 ± 0.18
- GQTTVQVRVPYRVVGLVVGPKGATIKRIQQQTHTYIVTPSRDKEPVVEVTGMPENVDRAREEIEMHI [F47V] — lower, -0.792 ± 0.11
- GQTTVQVRVPYRVVGLVVGPKGATIKRIQQQTHTYIVTPSRDKEPVPEVTGMPENVDRAREEIEMHI [F47P] — lower, -0.974 ± 0.32
- GQTTVQVRVPYRVVGLVVGPKGATIKRIQQQTHTYIVTPSRDKEPVGEVTGMPENVDRAREEIEMHI [F47G] — lower, -0.661 ± 0.07
- GQTTVQVRVPYRVVGLVVGPKGATIKRIQQQTHTYIVTPSRDKEPVNEVTGMPENVDRAREEIEMHI [F47N] — within error, -0.442 ± 0.22
- GQTTVQVRVPYRVVGLVVGPKGATIKRIQQQTHTYIVTPSRDKEPVWEVTGMPENVDRAREEIEMHI [F47W] — within error, -0.412 ± 0.093
- GQTTVQVRVPYRVVGLVVGPKGATIKRIQQQTHTYIVTPSRDKEPVREVTGMPENVDRAREEIEMHI [F47R] — lower, -0.706 ± 0.074
- GQTTVQVRVPYRVVGLVVGPKGATIKRIQQQTHTYIVTPSRDKEPVSEVTGMPENVDRAREEIEMHI [F47S] — lower, -0.835 ± 0.14
- GQTTVQVRVPYRVVGLVVGPKGATIKRIQQQTHTYIVTPSRDKEPVQEVTGMPENVDRAREEIEMHI [F47Q] — lower, -0.648 ± 0.19
- GQTTVQVRVPYRVVGLVVGPKGATIKRIQQQTHTYIVTPSRDKEPVTEVTGMPENVDRAREEIEMHI [F47T] — within error, -0.511 ± 0.15
- GQTTVQVRVPYRVVGLVVGPKGATIKRIQQQTHTYIVTPSRDKEPVYEVTGMPENVDRAREEIEMHI [F47Y] — within error, -0.677 ± 0.25
- GQTTVQVRVPYRVVGLVVGPKGATIKRIQQQTHTYIVTPSRDKEPVIEVTGMPENVDRAREEIEMHI [F47I] — lower, -0.853 ± 0.35
- GQTTVQVRVPYRVVGLVVGPKGATIKRIQQQTHTYIVTPSRDKEPVFEQTGMPENVDRAREEIEMHI [V49Q] — lower, -0.901 ± 0.35
- GQTTVQVRVPYRVVGLVVGPKGATIKRIQQQTHTYIVTPSRDKEPVFECTGMPENVDRAREEIEMHI [V49C] — lower, -0.668 ± 0.2
- GQTTVQVRVPYRVVGLVVGPKGATIKRIQQQTHTYIVTPSRDKEPVFENTGMPENVDRAREEIEMHI [V49N] — within error, -0.675 ± 0.43
- GQTTVQVRVPYRVVGLVVGPKGATIKRIQQQTHTYIVTPSRDKEPVFEKTGMPENVDRAREEIEMHI [V49K] — lower, -0.702 ± 0.18
- GQTTVQVRVPYRVVGLVVGPKGATIKRIQQQTHTYIVTPSRDKEPVFERTGMPENVDRAREEIEMHI [V49R] — lower, -0.788 ± 0.087
- GQTTVQVRVPYRVVGLVVGPKGATIKRIQQQTHTYIVTPSRDKEPVFEWTGMPENVDRAREEIEMHI [V49W] — lower, -0.99 ± 0.17
- GQTTVQVRVPYRVVGLVVGPKGATIKRIQQQTHTYIVTPSRDKEPVFEDTGMPENVDRAREEIEMHI [V49D] — within error, -0.71 ± 0.34
- GQTTVQVRVPYRVVGLVVGPKGATIKRIQQQTHTYIVTPSRDKEPVFEITGMPENVDRAREEIEMHI [V49I] — higher, 0.129 ± 0.068
- GQTTVQVRVPYRVVGLVVGPKGATIKRIQQQTHTYIVTPSRDKEPVFEYTGMPENVDRAREEIEMHI [V49Y] — within error, -0.804 ± 0.42
- GQTTVQVRVPYRVVGLVVGPKGATIKRIQQQTHTYIVTPSRDKEPVFEMTGMPENVDRAREEIEMHI [V49M] — lower, -0.793 ± 0.21
- GQTTVQVRVPYRVVGLVVGPKGATIKRIQQQTHTYIVTPSRDKEPVFEPTGMPENVDRAREEIEMHI [V49P] — lower, -1.34 ± 0.48
- GQTTVQVRVPYRVVGLVVGPKGATIKRIQQQTHTYIVTPSRDKEPVFETTGMPENVDRAREEIEMHI [V49T] — lower, -0.626 ± 0.12
- GQTTVQVRVPYRVVGLVVGPKGATIKRIQQQTHTYIVTPSRDKEPVFESTGMPENVDRAREEIEMHI [V49S] — lower, -0.843 ± 0.13
- GQTTVQVRVPYRVVGLVVGPKGATIKRIQQQTHTYIVTPSRDKEPVFEFTGMPENVDRAREEIEMHI [V49F] — lower, -0.842 ± 0.4
- GQTTVQVRVPYRVVGLVVGPKGATIKRIQQQTHTYIVTPSRDKEPVFEATGMPENVDRAREEIEMHI [V49A] — lower, -0.682 ± 0.12
- GQTTVQVRVPYRVVGLVVGPKGATIKRIQQQTHTYIVTPSRDKEPVFEGTGMPENVDRAREEIEMHI [V49G] — within error, -0.469 ± 0.066
- GQTTVQVRVPYRVVGLVVGPKGATIKRIQQQTHTYIVTPSRDKEPVFELTGMPENVDRAREEIEMHI [V49L] — lower, -0.62 ± 0.085
- GQTTVQVRVPYRVVGLVVGPKGATIKRIQQQTHTYIVTPSRDKEPVFEVLGMPENVDRAREEIEMHI [T50L] — within error, -0.547 ± 0.13
- GQTTVQVRVPYRVVGLVVGPKGATIKRIQQQTHTYIVTPSRDKEPVFEVGGMPENVDRAREEIEMHI [T50G] — lower, -0.651 ± 0.08
- GQTTVQVRVPYRVVGLVVGPKGATIKRIQQQTHTYIVTPSRDKEPVFEVMGMPENVDRAREEIEMHI [T50M] — within error, -0.378 ± 0.11
- GQTTVQVRVPYRVVGLVVGPKGATIKRIQQQTHTYIVTPSRDKEPVFEVYGMPENVDRAREEIEMHI [T50Y] — within error, -0.598 ± 0.21
- GQTTVQVRVPYRVVGLVVGPKGATIKRIQQQTHTYIVTPSRDKEPVFEVHGMPENVDRAREEIEMHI [T50H] — within error, -0.315 ± 0.19
- GQTTVQVRVPYRVVGLVVGPKGATIKRIQQQTHTYIVTPSRDKEPVFEVWGMPENVDRAREEIEMHI [T50W] — lower, -0.545 ± 0.11
- GQTTVQVRVPYRVVGLVVGPKGATIKRIQQQTHTYIVTPSRDKEPVFEVIGMPENVDRAREEIEMHI [T50I] — within error, -0.494 ± 0.16
- GQTTVQVRVPYRVVGLVVGPKGATIKRIQQQTHTYIVTPSRDKEPVFEVKGMPENVDRAREEIEMHI [T50K] — within error, -0.52 ± 0.15
- GQTTVQVRVPYRVVGLVVGPKGATIKRIQQQTHTYIVTPSRDKEPVFEVEGMPENVDRAREEIEMHI [T50E] — lower, -0.835 ± 0.21
- GQTTVQVRVPYRVVGLVVGPKGATIKRIQQQTHTYIVTPSRDKEPVFEVNGMPENVDRAREEIEMHI [T50N] — lower, -0.792 ± 0.35
